B1: Thioredoxin, P08058 (parent)
chain: MSTVPVTDATFDTEVRKSDVPVVVDFWAEWCGPCRQIGPALEELSKEYAGKVKIVKVNVDENPESPAMLGVRGIPALFLFKNGQVVSNKVGAAPKAALATWIASAL

Variants of: B1
Conditions: Cereibacter sphaeroides, pH 7.4, 23 °C, Urea, Fluorescence, whole UniProt chain shown

Variant | unfolding free energy (Potassium phosphate 20mM) [kJ/mol] | ddG of mutation (higher = less stable) (Potassium phosphate 20 mM) [kJ/mol] | unfolding free energy (Potassium phosphate 20 mM) [kJ/mol]
MSTVPVTDATFDTEVRKSDVPVVVDYWAEWCGPCRQIGPALEELSKEYAGKVKIVKVNVDENPESPAMLGVRGIPALFLFKNGQVVSNKVGAAPKAALATWIASAL [F26Y] | 33 |  | 
MSTVPVTDATFDTEVRKSDVPVVVDLWAEWCGPCRQIGPALEELSKEYAGKVKIVKVNVDENPESPAMLGVRGIPALFLFKNGQVVSNKVGAAPKAALATWIASAL [F26L] | 20 | 14.2 | 20.1
MSTVPVTDATFDTEVRKSDVPVVVDIWAEWCGPCRQIGPALEELSKEYAGKVKIVKVNVDENPESPAMLGVRGIPALFLFKNGQVVSNKVGAAPKAALATWIASAL [F26I] | 18 |  | 
MSTVPVTDATFDTEVRKSDVPVVVDVWAEWCGPCRQIGPALEELSKEYAGKVKIVKVNVDENPESPAMLGVRGIPALFLFKNGQVVSNKVGAAPKAALATWIASAL [F26V] | 14 | 20.1 | 14.2

Source: FireProtDB (doi:10.1002/pro.5560041207)
